Reference: publication PMC4431388, “Effect of the distal histidine on the peroxidatic activity of monomeric cytoglobin” (F1000Research, 2015)
Where a chain is given by its changes, count along the chain named. Names and notes keep the numbering of the source.

Molecular target: the molecule itself
Test: SEC; G75 Superdex column equilibrated with 0.1 M sodium phosphate buffer pH 7.4; absorbance at 280 nm; monomer to dimer of the recombinant protein as purified

B1: human cytoglobin, wildtype (natural protein, UniProt Q8WWM9 1-190, looked up)
chain: MEKVPGEMEIERRERSEELSEAERKAVQAMWARLYANCEDVGVAILVRFFVNFPSAKQYFSQFKHMEDPLEMERSPQLRKHACRVMGALNTVVENLHDPDKVSSVLALVGKAHALKHKVEPVYFKILSGVILEVVAEEFASDFPPETQRAWAKLRGLIYSHVTAAYKEVGWVQQVPNATTPPATLPSSGP
notes: cytoglobin, human; gene bought from OriGene and transferred into pET28a; monomer runs at 21 kDa; Haem protein; The preparation holds monomer, dimer and a minor polymerised fraction; also called Cygb; WT Cygb
Question: Which “stoichiometry N” value does the source give for B1 here?
Answer: 2

B2: human cytoglobin H81V (natural protein, UniProt Q8WWM9 1-190, looked up)
chain: B1 chain with H81V
notes: cytoglobin, human, distal histidine mutant; Haem protein; also called H81V Cygb; histidine 81(E7) to valine mutation
Question: Does B2 bind?
Answer: binds

B3: human cytoglobin H81Y (natural protein, UniProt Q8WWM9 1-190, looked up)
chain: B1 chain with H81Y
notes: cytoglobin, human, distal histidine mutant; Haem protein; also called H81Y Cygb; histidine 81 to tyrosine mutation
Question: Does B3 bind?
Answer: binds
